PMC12169553

Columns and labels:
Experiment in all cases: SEC; Superdex 200 increase column, 40 mM potassium phosphate, 300 mM NaCl, pH 6.5, 1 mL/min, detection at 220 nm; drug products reconstituted in water for injection
[1] = target: L-Aspase (E. coli L-asparaginase) (E. coli) (UniProt P00805)
[2] = target: T1, Spectrila (recombinant E. coli L-asparaginase type II) (E. coli), P00805; conditions: remark: other sources report otherwise
T1 chain: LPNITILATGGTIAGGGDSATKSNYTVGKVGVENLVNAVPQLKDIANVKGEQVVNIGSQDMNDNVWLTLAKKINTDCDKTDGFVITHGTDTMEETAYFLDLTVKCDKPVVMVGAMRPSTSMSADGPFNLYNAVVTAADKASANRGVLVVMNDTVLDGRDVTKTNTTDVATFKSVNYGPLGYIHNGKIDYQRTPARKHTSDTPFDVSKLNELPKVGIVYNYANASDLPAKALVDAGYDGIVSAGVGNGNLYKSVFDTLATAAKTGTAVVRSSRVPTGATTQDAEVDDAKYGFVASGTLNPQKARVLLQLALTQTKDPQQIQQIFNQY

[3] = target: T2, Celginase (E. coli L-asparaginase) (E. coli), P00805; conditions: remark: other sources report otherwise
T2 chain: T1 chain

[4] = target: T3, Bionase (E. coli L-asparaginase) (E. coli), P00805; conditions: remark: other sources report otherwise
T3 chain: T1 chain

Molecule: L-Aspase (E. coli L-asparaginase) (from UniProt P00805 23-348) (enzyme)
- stoichiometry N [1]: 4

B1: Spectrila (recombinant E. coli L-asparaginase type II), P00805 23-348 (enzyme)
chain: T1 chain
- stoichiometry N [2]: 4

B2: Celginase (E. coli L-asparaginase), P00805 23-348 (enzyme)
chain: T1 chain
- stoichiometry N [3]: 4

B3: Bionase (E. coli L-asparaginase), P00805 23-348 (enzyme)
chain: T1 chain
- stoichiometry N [4]: 4
